Here are results for two molecules from patent publication US20240368286A1 (SHANGHAI JMT BIO TECHNOLOGY, published 2024).

Where two headings read alike, the source gives them in different places.

For orientation: koff means the first-order rate constant of dissociation. Broadly, the Kd is the concentration at which binding is half-saturated. The term EC50 denotes the midpoint of the concentration-response curve.

The target of experiment [1] is T1, Mouse GFRAL protein (Biacore analyte) (mouse, UniProt Q6SJE0 20-349, limits assumed).
T1 construct: also called mGFRAL
T1 sequence (looked up): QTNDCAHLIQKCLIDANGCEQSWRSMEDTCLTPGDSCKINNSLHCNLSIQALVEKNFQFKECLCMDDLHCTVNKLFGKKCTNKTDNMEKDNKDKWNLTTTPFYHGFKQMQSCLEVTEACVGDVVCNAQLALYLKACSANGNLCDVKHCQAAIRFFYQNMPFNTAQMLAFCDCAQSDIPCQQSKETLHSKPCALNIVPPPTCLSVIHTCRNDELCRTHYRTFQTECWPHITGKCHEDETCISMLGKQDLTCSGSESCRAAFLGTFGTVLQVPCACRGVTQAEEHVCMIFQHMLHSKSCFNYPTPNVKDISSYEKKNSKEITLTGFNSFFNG
Put plainly: Biacore SPR, antibody captured via anti-human Fc on CM5, GFRAL injected, 25 C. How it is done:
(§1) Binding affinity assays were performed for three antibody strains 168A7, 8E10 and 26D7 based on the Biacore affinity assay. The binding affinities of purified antibodies to human or mouse GFRAL were assessed by measuring the equilibrium dissociation constants (KD). The anti-human Fc antibody was immobilized in the flow cell of the CM5 chip according to the instructions of the amino-coupled kit (catalogue number: BR100050, Cytiva). Purified antibodies (˜300 RU) were captured on flow cells 2, 3 and 4 using flow cell 1 as a reference. Human or mouse GFRAL protein (in an HBS-EP buffer) was then injected at a flow rate of 30 μL/min and the binding kinetics were evaluated at 25° C. The results were as follows (FIGS. 1A-1C, Table 4)
On the technique in general: In SPR one partner is held on a chip, and binding of the other changes the refractive index at the surface.

For experiment [2], the target named is T2, Human GFRAL protein (Biacore analyte) (human, UniProt Q6UXV0 19-351, limits assumed).
T2 construct: also called hGFRAL
T2 sequence (looked up): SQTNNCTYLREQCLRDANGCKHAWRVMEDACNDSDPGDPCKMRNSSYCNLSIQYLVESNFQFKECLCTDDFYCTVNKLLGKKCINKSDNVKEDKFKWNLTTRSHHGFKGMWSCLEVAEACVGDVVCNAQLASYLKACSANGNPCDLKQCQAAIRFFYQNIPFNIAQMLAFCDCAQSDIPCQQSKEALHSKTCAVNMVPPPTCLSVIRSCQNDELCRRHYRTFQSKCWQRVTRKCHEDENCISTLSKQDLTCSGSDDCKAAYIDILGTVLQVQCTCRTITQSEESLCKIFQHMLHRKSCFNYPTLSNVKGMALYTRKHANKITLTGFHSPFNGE
The experiment is described as above. How it is done:
as §1

Experiment [3] has as its target T3, Human GFRAL (hGFRAL) on HEK293 reporter cells with human RET (human, UniProt Q6UXV0 19-394).
T3 sequence (looked up): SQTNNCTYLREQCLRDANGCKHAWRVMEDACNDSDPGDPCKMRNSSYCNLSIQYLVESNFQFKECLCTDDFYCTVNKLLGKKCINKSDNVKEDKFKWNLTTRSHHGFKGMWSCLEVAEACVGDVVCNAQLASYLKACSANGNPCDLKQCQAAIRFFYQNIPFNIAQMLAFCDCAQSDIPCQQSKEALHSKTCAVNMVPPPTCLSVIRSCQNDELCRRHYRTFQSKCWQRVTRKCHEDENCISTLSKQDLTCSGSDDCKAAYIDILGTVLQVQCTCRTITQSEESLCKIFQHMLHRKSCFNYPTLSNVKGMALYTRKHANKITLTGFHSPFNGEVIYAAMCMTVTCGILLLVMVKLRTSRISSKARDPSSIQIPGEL
Briefly: cell-based or functional assay.

Experiment [4] has as its target T4, Mouse GFRAL (mGFRAL) on HEK293 reporter cells with mouse RET (mouse, UniProt Q6SJE0 20-393).
T4 sequence (looked up): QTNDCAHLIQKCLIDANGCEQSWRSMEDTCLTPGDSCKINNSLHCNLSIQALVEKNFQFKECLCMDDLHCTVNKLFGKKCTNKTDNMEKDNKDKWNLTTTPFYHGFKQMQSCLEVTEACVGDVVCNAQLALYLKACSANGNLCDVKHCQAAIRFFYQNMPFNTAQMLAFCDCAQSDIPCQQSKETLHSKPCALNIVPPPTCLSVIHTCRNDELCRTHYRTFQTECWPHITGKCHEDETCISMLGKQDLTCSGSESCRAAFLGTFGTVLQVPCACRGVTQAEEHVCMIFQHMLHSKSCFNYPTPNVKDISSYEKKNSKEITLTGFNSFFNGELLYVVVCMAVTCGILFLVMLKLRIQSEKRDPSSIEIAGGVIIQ
Put plainly: cell-based or functional assay.

The target in experiment [5] is Cynomolgus monkey GFRAL-His protein (cynomolgus monkey). Put plainly: ELISA, antigen coated on plate, purified antibody titrated, HRP anti-mouse IgG detection. How it is done:
(§2) The ELISA assay had the following protocols. Human GFRAL-His protein, cynomolgus monkey GFRAL-His protein, or mouse GFRAL-Fc protein were coated on 96-well plates, and after blocking the wells with PBS/1% BSA solution, the hybridoma supernatant or purified antibodies were added to the reaction wells. After incubation for 1 hour at room temperature, HRP-labeled anti-mouse IgG (Fab region) antibody was added to the reaction wells to incubate for an additional hour at room temperature. After the substrate and stop solution were added successively, the OD₄₅₀ values were read. The OD₄₅₀ values were used to verify and assess the binding ability of the antibodies to the GFRAL proteins.
Background: An ELISA detects its analyte on a solid surface through an enzyme-linked reagent.

In experiment [6] the target is T5, Mouse GFRAL-Fc protein (mouse, UniProt Q6SJE0 20-349, limits assumed).
T5 construct: not shown: Fc
T5 sequence (looked up): T1 sequence (looked up)
The experiment is described as above. How it is done: as §2

The target of experiment [7] is T6, Human GFRAL-His protein (human, UniProt Q6UXV0 19-351).
T6 construct: also called human GFRAL-His fusion protein; not shown: His tag
T6 sequence (looked up): T2 sequence (looked up)
The description is as above. How it is done:
as §2

For experiment [8], the target named is Cynomolgus monkey GFRAL protein (Biacore analyte) (cynomolgus monkey). Put plainly: Biacore SPR, humanized antibody captured via murine anti-human Fc on CM5, GFRAL injected in 2-fold dilutions, 25 C. As for the experimental part:
(§3) Specific protocols are as follows.
(§4) The surface of the CM5 chip was activated using 400 mM EDC and 100 mM NHS at a flow rate of 10 μl/min according to the instructions for the amino-coupled kit (Cat. No. BR100050, Cytiva). Then, the murine anti-human Fc antibody was immobilized in the test channel (Fc2) and the reference channel (Fc1) of the CM5 chip. Finally, the chip was blocked with 1 M ethanolamine at a flow rate of 10 μl/min; The humanized antibody (˜300 RU) diluted to 5 μg/ml was then captured on the assay channel (Fc2), and ligand capture were not carried out on the reference channel. Human, mouse or cynomolgus monkey GFRAL proteins (in a HBS-EP buffer) with 2-fold doubling dilutions was subsequently injected at a flow rate of 30 μL/min and the binding kinetics were evaluated at 25° C. The results are as follows (see Table 12)

For experiment [9], the target named is T1, Mouse GFRAL protein (Biacore analyte). The description is as above. As for the experimental part:
as §3, §4

In experiment [10] the target is T2, Human GFRAL protein (Biacore analyte). The description is as above. How it is done: as §3, §4
Experiment [11] concerns the target T3, Human GFRAL (hGFRAL) on HEK293 reporter …. Put plainly: cell-based or functional assay. The source holds these as a separate data set.
In experiment [12] the target is T4, Mouse GFRAL (mGFRAL) on HEK293 reporter …. Put plainly: cell-based or functional assay. This is another data set of the same source.

B1: 26D7 (antibody, V domains shown)
VH: QIQLVQSGPELKKPGETVKISCKVSGYTFTDYGMNWVKQTPGKDLKWVGWINTYTGEPTYADDFKDRFAFSLEASASTAYLQINNLKNEDTATYFCARRYGYDAGIDCWGQGTTLTVSS
VL: NIVLTQSPPSLAVSLGQRATISCRASESVDSYGNNLMHWYQQKPGQPPKLLIYLASYLESGVPARFSGSGSRTDFTLTIDPVEADDAATYYCQQNNEDPWTFGGGTKLEIK
notes: Murine hybridoma antibody, purified; also called m26D7; M26D7
On to B1, for which the figures for the koff in experiment [1] and in [2] were 0.000293 s⁻¹ and 9.37e-05 s⁻¹, respectively. The Kd in [2] is 0.0153 nM. Moreover, the “IC50 (nM), luciferase reporter gene assay, Human GFRAL/human RET” value in [3] was 6.35 nM. Besides, in [4], the “IC50 (nM), luciferase reporter gene assay, Mouse GFRAL/mouse RET” value is 0.76 nM. Also, the 50% effective concentration (EC50) in experiment [5] came to 0.06 nM; in experiment [6], 0.15 nM; in experiment [7], 0.07 nM.

B2: 26D7H5bL5a (antibody, V domains shown)
VH: QVQLVQSGAEVKKPGASVKVSCKVSGYTFTDYGMNWVRQAPGQGLEWMGWINTYTGEPTYAQKLQGRVTFTTDTSTSTAYMELRSLRSDDTAVYYCARRYGYDAGIDAWGQGTTVTVSS
VL: DIQMTQSPSSLSASVGDRVTITCRASESVESYGNNLMHWYQQKPGKAPKLLIYLASYLESGVPSRFSGSGSGTDFTLTISSLQPEDFATYYCQQNNESPWTFGGGTKLEIK
notes: Humanized; also called humanized anti-GFRAL antibody 26D7H5bL5a
As to B2, the Kd worked out at 0.246 nM in experiment [8] and 0.119 nM in experiment [10]. Also, the koff was determined as 0.000231 s⁻¹ in experiment [8], 0.000314 s⁻¹ in experiment [9] and 0.000268 s⁻¹ in [10]. In addition, the “IC50 (nM), luciferase reporter gene assay, Human GFRAL/human RET” value in experiment [11] worked out at 11.8 nM. Also, the “IC50 (nM), luciferase reporter gene assay, Mouse GFRAL/mouse RET” value in [12] is 0.9 nM.
